In patent US20200339636A1:

Biological target: FZDs (endogenous Frizzled receptors of the cells used: HEK293T cells; CSPG4 KO HeLa cells)
Experiment: cell-based or functional assay

TcdB^GFE (full length TcdB with 1595VNFLQS replaced by GFE) (from UniProt P18177 1-2366)
toxicity on CSPG4 KO HeLa cells, cell-rounding assay (CR50), against WT TcdB: 190 fold
